# Measurements: PMC2954370
# Target: HIV-1 Env gp140 of isolate JRFL (HIV-1 isolate JRFL (clade B)) (UniProt Q75760)
# Experiment: ELISA
substance,measurement,value
human soluble CD4 (first two domains of the human CD4) (from UniProt P01730 26-203) (domain or fragment),EC50,6 nM
